Literature values in paper PMC9971567.
pKd: −log10 of the molar value.

Target: Intimin C terminus (Escherichia coli) (UniProt P19809)
UniProt P19809, sequence (P19809 660-939): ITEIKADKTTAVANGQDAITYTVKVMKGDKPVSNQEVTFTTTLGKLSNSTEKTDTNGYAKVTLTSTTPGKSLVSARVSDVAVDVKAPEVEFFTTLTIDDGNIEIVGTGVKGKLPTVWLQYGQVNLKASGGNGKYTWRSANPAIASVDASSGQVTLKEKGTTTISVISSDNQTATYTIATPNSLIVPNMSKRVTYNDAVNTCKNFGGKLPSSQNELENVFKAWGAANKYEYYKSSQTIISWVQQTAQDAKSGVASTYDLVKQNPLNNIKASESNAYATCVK

## Tir central loop (from UniProt B7UM99)
  pKd: 8.00
